Literature values, collected in patent US9545449B2, “Site-specific labeling and targeted delivery of proteins for the treatment of cancer” (Advanced Proteome Therapeutics Inc., priority 2012, dated 2017).

Conditions: binding to phosphatidylserine; from Thiagarajan and Tait, J. Biol. Chem. 265:17420-17423 (1990); read-out: Kd (affinity for PS)

Kd: 1.7 nM
B1: Annexin V: human annexin V (SEQ ID NO:1) (Accession P08758); phosphatidylserine-binding protein (protein, listed as Homo sapiens)
chain: MAQVLRGTVTDFPGFDERADAETLRKAMKGLGTDEESILTLLTSRSNAQRQEISAAFKTLFGRDLLDDLKSELTGKFEKLIVALMKPSRLYDAYELKHALKGAGTNEKVLTEIIASRTPEELRAIKQVYEEEYGSSLEDDVVGDTSGYYQRMLVVLLQANRDPDAGIDEAQVEQDAQALFQAGELKWGTDEEKFITIFGTRSVSHLRKVFDKYMTISGFQIEETIDRETSGNLEQLLLAVVKSIRSIPAYLAETLYYAMKGAGTDDHTLIRVMVSRSEIDLFNIRKEFRKNFATSLYSMIKGDTSGDYKKALLLLCGEDD
